For assay [1], the target named is (RBD(319-541)-CHO)2 (SARS-CoV-2) (UniProt P0DTC2). The experiment in a line: SDS-PAGE.
For assay [2], the target named is RBD(319-541)-HEK_A3 (SARS-CoV-2) (UniProt P0DTC2). The experiment in a line: SDS-PAGE.

As a reminder, the stoichiometry N is the number of molecules, sites or subunits per partner or assembly. Consider “(RBD(319-541)-CHO)2 (from UniProt P0DTC2 319-541) (domain or fragment)”, for which the stoichiometry N in assay [1] was found to be 2. In the case of “RBD(319-541)-HEK_A3 (from UniProt P0DTC2 319-541) (domain or fragment)”, in assay [2], the percent of the preparation as dimer was 13% and the stoichiometry N worked out at 2.

The values above are taken from publication doi:10.1101/2021.05.10.443404.
